Test results reported in publication PMC10229617 (Nature Communications, 2023).

Target: the molecule itself
Test: native MS; MS spectrum of the archaeal α/β assembly mixture (assembled without the 60 °C step), 150 mM ammonium acetate pH 7.5

B1: T. acidophilum 20S proteasome α-ring (α7), tag cleaved (natural protein, Thermoplasma acidophilum)
chain: MQQGQMAYDRAITVFSPDGRLFQVEYAREAVKKGSTALGMKFANGVLLISDKKVRSRLIEQNSIEKIQLIDDYVAAVTSGLVADARVLVDFARISAQQEKVTYGSLVNIENLVKRVADQMQQYTQYGGVRPYGVSLIFAGIDQIGPRLFDCDPAGTINEYKATAIGSGKDAVVSFLEREYKENLPEKEAVTLGIKALKSSLEEGEELKAPEIASITVGNKYRIYDQEEVKKFL
notes: proteasome subunit alpha, Thermoplasma acidophilum; source: E. coli BL21(DE3), purified (HisTrap FF, TEV cleavage), in the assembly mixture
stoichiometry N: 7
